The term Kd denotes the constant that tells how readily two partners part at equilibrium. Low values mean a tighter complex, high ones a looser complex. Usually IC50 stands for the concentration needed to halve the response being measured.

Five molecules from US20180340025A1 (Novartis, published 2018) can be followed below.

The target in test [1] is T1, human LAG-3 expressed on cells (human, UniProt P18627 23-525).
T1 construct: whole, on cells; Treated as one protein; the host cell is named under assay; also called LAG-3-expressing CHO cells; LAG-3-transfected CHO cells
T1 sequence (looked up): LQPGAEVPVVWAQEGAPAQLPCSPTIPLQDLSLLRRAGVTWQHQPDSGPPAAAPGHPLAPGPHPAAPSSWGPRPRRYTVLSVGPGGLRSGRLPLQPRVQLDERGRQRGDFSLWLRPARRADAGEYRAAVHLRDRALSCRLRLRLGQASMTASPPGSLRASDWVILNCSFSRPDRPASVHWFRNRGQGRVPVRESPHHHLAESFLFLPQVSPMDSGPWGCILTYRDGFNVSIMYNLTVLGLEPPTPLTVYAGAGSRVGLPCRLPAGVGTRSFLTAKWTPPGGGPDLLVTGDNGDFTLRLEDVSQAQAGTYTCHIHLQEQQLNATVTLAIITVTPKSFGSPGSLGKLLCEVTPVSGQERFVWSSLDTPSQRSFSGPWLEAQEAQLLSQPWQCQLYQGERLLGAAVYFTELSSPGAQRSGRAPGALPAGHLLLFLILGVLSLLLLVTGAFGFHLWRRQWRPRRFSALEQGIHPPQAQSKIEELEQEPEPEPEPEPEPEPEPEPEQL
The experiment in a line: FACS competition: serial dilutions of the test mAb against a constant concentration of FITC-labeled murine BAP050 on LAG-3-expressing CHO cells; MFI of bound labelled mAb.

Test [2] deals with T1, human LAG-3 expressed on cells. The experiment in a line: FACS, human LAG-3 transfected 300.19 cells; human LAG-3 transfected 300.19 cells. For orientation: In flow cytometry, cells or beads pass a laser one at a time.
Test [3] shares this target. As to the kind of experiment: FACS, human LAG-3 transfected CHO cells; human LAG-3 transfected CHO cells.
Test [4] shares this target. As to the kind of experiment: FACS, human T cells; human T cells.
Test [5] addresses T2, LAG-3-huIgG1 Fc fusion protein (human, UniProt P18627 23-434, limits assumed).
T2 construct: also called LAG-3-Ig; soluble LAG-3-Ig; not shown: human IgG1 Fc
T2 sequence (looked up): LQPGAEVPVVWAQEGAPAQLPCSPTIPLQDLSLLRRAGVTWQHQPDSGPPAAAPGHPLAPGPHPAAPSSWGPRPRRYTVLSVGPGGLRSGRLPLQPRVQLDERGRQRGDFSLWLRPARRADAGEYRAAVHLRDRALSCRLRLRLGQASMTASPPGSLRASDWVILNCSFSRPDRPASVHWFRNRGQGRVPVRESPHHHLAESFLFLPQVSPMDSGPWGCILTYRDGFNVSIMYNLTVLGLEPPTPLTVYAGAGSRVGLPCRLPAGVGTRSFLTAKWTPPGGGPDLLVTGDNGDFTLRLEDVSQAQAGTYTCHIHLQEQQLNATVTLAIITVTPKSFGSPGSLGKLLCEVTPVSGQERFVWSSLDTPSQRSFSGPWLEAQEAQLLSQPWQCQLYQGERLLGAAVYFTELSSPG
The experiment in a line: competition binding assay, LAG-3-Ig binding to MHC class II on Raji cells.

B1: BAP050-hum05-Ser (antibody, human IgG4 S228P, kappa)
heavy: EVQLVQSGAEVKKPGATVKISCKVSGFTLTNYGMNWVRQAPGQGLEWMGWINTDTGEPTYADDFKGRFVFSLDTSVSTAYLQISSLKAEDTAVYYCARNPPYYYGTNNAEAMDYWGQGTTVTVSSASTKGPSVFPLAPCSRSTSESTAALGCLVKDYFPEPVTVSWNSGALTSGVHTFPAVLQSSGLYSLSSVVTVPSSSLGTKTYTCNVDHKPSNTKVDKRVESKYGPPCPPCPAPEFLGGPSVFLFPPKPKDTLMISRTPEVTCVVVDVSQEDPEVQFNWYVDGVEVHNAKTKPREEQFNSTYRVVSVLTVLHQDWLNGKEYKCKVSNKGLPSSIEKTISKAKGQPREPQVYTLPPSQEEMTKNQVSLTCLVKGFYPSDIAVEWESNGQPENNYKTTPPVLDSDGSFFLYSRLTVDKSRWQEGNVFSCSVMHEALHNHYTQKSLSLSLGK
light: EIVLTQSPATLSLSPGERATLSCSSSQDISNYLNWYQQKPGKAPKLLIYYTSTLHLGVPSRFSGSGSGTDFTFTISSLEAEDAATYYCQQYYNLPWTFGQGTKVEIKRTVAAPSVFIFPPSDEQLKSGTASVVCLLNNFYPREAKVQWKVDNALQSGNSQESVTEQDSKDSTYSLSSTLTLSKADYEKHKVYACEVTHQGLSSPVTKSFNRGEC
notes: C84S in VHFW3 of BAP050-hum05; IgG4(S228P)/kappa; also called clone No. 5S; huBAP050(Ser) clone
In the case of B1, the binding result in test [1] is listed as “binds”.

B2: BAP050-hum13-Ser (antibody, human IgG4 S228P, kappa, V domains shown)
VH: QVQLVQSGAEVKKPGASVKVSCKASGFTLTNYGMNWVRQAPGQGLEWMGWINTDTGEPTYADDFKGRFVFSLDTSVSTAYLQISSLKAEDTAVYYCARNPPYYYGTNNAEAMDYWGQGTTVTVSS
VL: DIQMTQSPSSLSASVGDRVTITCSSSQDISNYLNWYQQKPGKAPKLLIYYTSTLHLGIPPRFSGSGYGTDFTLTINNIESEDAAYYFCQQYYNLPWTFGQGTKVEIKR
notes: C84S in VHFW3 of BAP050-hum13; IgG4(S228P)/kappa; also called clone No. 13S (printed 135); huBAP050(Ser) clone
On to B2, for which the binding result in test [1] is on record as “binds”.

B3: BAP050-hum11-Ser (antibody, human IgG4 S228P, kappa, V domains shown)
VH: QVQLVQSGAEVKKPGASVKVSCKASGFTLTNYGMNWVRQARGQRLEWIGWINTDTGEPTYADDFKGRFVFSLDTSVSTAYLQISSLKAEDTAVYYCARNPPYYYGTNNAEAMDYWGQGTTVTVSS
VL: DIQMTQSPSSLSASVGDRVTITCSSSQDISNYLNWYLQKPGQSPQLLIYYTSTLHLGVPSRFSGSGSGTEFTLTISSLQPDDFATYYCQQYYNLPWTFGQGTKVEIKR
notes: C84S in VHFW3 of BAP050-hum11; IgG4(S228P)/kappa; also called clone No. 11S
For B3, the binding result in test [1] is given as “binds”.

B4: BAP050-hum12-Ser (antibody, human IgG4 S228P, kappa, V domains shown)
VH: QVQLVQSGAEVKKPGASVKVSCKASGFTLTNYGMNWVRQARGQRLEWIGWINTDTGEPTYADDFKGRFVFSLDTSVSTAYLQISSLKAEDTAVYYCARNPPYYYGTNNAEAMDYWGQGTTVTVSS
VL: EIVLTQSPDFQSVTPKEKVTITCSSSQDISNYLNWYQQKPGQAPRLLIYYTSTLHLGVPSRFSGSGSGTDFTLTISSLQPEDFATYYCQQYYNLPWTFGQGTKVEIKR
notes: C84S in VHFW3 of BAP050-hum12; IgG4(S228P)/kappa; also called huBAP050(Ser) clone
For the molecule B4, in test [1], the binding result is “binds”.

B5: murine anti-LAG-3 monoclonal antibody BAP050 (antibody, V domains shown)
VH: QIQLVQSGPELKKPGETVKISCKASGFTLTNYGMNWVRQTPGKGLKWMGWINTDTGEPTYADDFKGRFAFSLETSASTASLQINNLKNADTATYFCARNPPYYYGTNNAEAMDYWGQGTAVTVSS
VL: DIQMTQTTSSLSASLGDRVTISCSSSQDISNYLNWYQQKPDGTVKVLIYYTSTLHLGVPSRFSGSGSGTDYSLTISNLELEDIATYYCQQYYNLPWTFGGGTKLEIK
notes: also called murine mAb; parent murine mAb
Consider B5, for which the Kd in test [2] amounted to 13.6 nM; in test [3] it was 0.2 nM; in test [4] it was 0.26 nM. Also, in test [5], the IC50 was 2.3 nM.
